Test [1] has as its target HER2 on SUM185 and SUM190 human breast cancer tumor cells (human) (UniProt P04626). Description: flow cytometry on SUM185 cells, antibody at 10 µg/ml. Background: In flow cytometry, cells or beads pass a laser one at a time.
Test [2] has the same target. Description: flow cytometry on SUM190 cells, antibody at 10 µg/ml.

“Anti-Her2 antibody trastuzumab modified as human IgG1 isotype containing a N297Q mutation”: the MFI (median fluorescence units) was 2880 in test [1] and 1780 in test [2].

The record behind these values is patent US20240325557A1, “TREATMENT OF CANCER” (INNATE PHARMA, priority 2020, published 2024).
